In patent publication US11344606B2, “Parathyroid hormone fusion polypeptide” (University of Sheffield, priority 2017, dated 2022):

What was measured:
[1] = system: UMR-106 cells (PTH responsive cell line); assay: In vitro induction of cAMP in UMR-106 cells (cAMP ELISA); format: cell-based, rat
Method: FIG. 3: In Vitro Bioactivity of 14A1 and 14A2 proteins. Purified proteins were tested for their ability to stimulate cAMP production from the PTH responsive cell line, UMR-106 (rat osteoblastic like cell line). Cells were stimulated for 15 minutes in the presence of test molecules and cAMP levels measured from cell lysates using a cAMP specific Elisa. […] Data is presented as pmol cAMP/ml+/−Standard deviation;
FIG. 29A: In vitro induction of cAMP. […] Cells were lysed and cAMP levels measured using an R & D systems Parameter cAMP Elisa. Data are presented as log pmol cAMP/ml±SD. […] Average of n=1 experiment carried out in duplicate.
Purified proteins were tested for their ability to stimulate cAMP production from the PTH responsive cell line, UMR-106 (rat osteoblastic like cell line). Cells were stimulated for 15 minutes in the presence of test molecules and cAMP levels measured from cell lysates using a cAMP specific Elisa (R&D systems).

UMR-106 cells = assay: Dual Luciferase Reporter Assay for cAMP activity (pGL4.29/CRE/Luc2) in UMR-106 cells; format: cell-based, rat; details: FIG. 29D
Excerpt: Cells were lysed and Luciferase activity measured using the Promega Dual Luciferase Assay kit. Data are presented as fold induction of control±SD. […] Average of triplicate values. […] Representative of 3 separate experiments.
Cells were lysed and Luciferase activity measured using the Promega Dual Luciferase Assay kit. Data are presented as fold induction of control±SD.
FIG. 29D: Determination of EC50 values for PTH & PTH fusions using the Dual Luciferase Reporter Assay.

[2] = 500 nM PTH fusion, 15 minutes at 37° C./5% CO2, FIG. 29A, n=1 experiment in duplicate

Question: With `CC[C@H](C)[C@H](NC(=O)[C@H](CCC(=O)O)NC(=O)[C@H](CO)NC(=O)[C@@H](NC(=O)[C@@H](N)CO)C(C)C)C(=O)N[C@@H](CCC(N)=O)C(=O)N[C@@H](CC(C)C)C(=O)N[C@@H](CCSC)C(=O)N[C@@H](Cc1c[nH]cn1)C(=O)N[C@@H](CC(N)=O)C(=O)N[C@@H](CC(C)C)C(=O)NCC(=O)N[C@@H](CCCCN)C(=O)N[C@@H](Cc1c[nH]cn1)C(=O)N[C@@H](CC(C)C)C(=O)N[C@@H](CC(N)=O)C(=O)N[C@@H](CO)C(=O)N[C@@H](CCSC)C(=O)N[C@@H](CCC(=O)O)C(=O)N[C@@H](CCCNC(=N)N)C(=O)N[C@H](C(=O)N[C@@H](CCC(=O)O)C(=O)N[C@@H](Cc1c[nH]c2ccccc12)C(=O)N[C@@H](CC(C)C)C(=O)N[C@@H](CCCNC(=N)N)C(=O)N[C@@H](CCCCN)C(=O)N[C@@H](CCCCN)C(=O)N[C@@H](CC(C)C)C(=O)N[C@@H](CCC(N)=O)C(=O)N[C@@H](CC(=O)O)C(=O)N[C@H](C(=O)N[C@@H](Cc1c[nH]cn1)C(=O)N[C@@H](CC(N)=O)C(=O)N[C@@H](Cc1ccccc1)C(=O)O)C(C)C)C(C)C` [PTH 1-34, reference compound] as the molecule, how does the “cAMP levels (mean±SD)” value ([1]; 100 nM human PTH 1-34, 15 minutes at 37° C./5% CO2, FIG. 29A) read?
Answer: Its value is 2551±186 pmol cAMP/ml.

B1: 14A3b: GHss-PTH (1-34)-(g4s)4-PTHrExt-(g4s)4-GHbp, SEQ ID NO: 14 (protein)
chain: MATGSRTSLLLAFGLLCLPWLQEGSASVSEIQLMHNLGKHLNSMERVEWLRKKLQDVHNFGGGGSGGGGSGGGGSGGGGSDDVMTKEEQIFLLHRAQAQCEKRLKEVLQRPASIMESDKGWTSASTSGKPRKDKASGKLYPESEEDKEAPTGSRYRGRPCLPEWDHILCWPLGAPGEVVAVPCPDYIYDFNHKGHAYRRCDRNGSWELVPGHNRTWANYSECVKFLTNETREREVFDRLGGGGSGGGGSGGGGSGGGGSFSGSEATAAILSRAPWSLQSVNPGLKTNSSKEPKFTKCRSPERETFSCHWTDEVHHGTKNLGPIQLFYTRRNTQEWTQEWKECPDYVSAGENSCYFNSSFTSIAIPYCIKLTSNGGTVDEKCFSVDEIVQPDPPIALNWTLLNVSLTGIHADIQVRWEAPRNADIQKGWMVLEYELQYKEVNETKWKMMDPILTTSVPVYSLKVDKEYEVRVRSKQRNSGNYGEFSEVLYVTLPQMSQ
modifications: Fusion proteins
Question: Which results are given for B1?
Answer: fold by which PTH is more potent than the fusion (EC50 ratio) (UMR-106 cells): 28 fold; cAMP levels (mean±SD) [1, 2]: 25±0.95 pmol cAMP/ml

B2: 14A2c: PTHss-pp-PTH (1-34)-(g4s)4-PTHrExt-(g4s)4-GHbp, SEQ ID NO: 13 (protein)
chain: MIPAKDMAKVMIVMLAICFLTKSDGKSVKKRSVSEIQLMHNLGKHLNSMERVEWLRKKLQDVHNFGGGGSGGGGSGGGGSGGGGSDDVMTKEEQIFLLHRAQAQCEKRLKEVLQRPASIMESDKGWTSASTSGKPRKDKASGKLYPESEEDKEAPTGSRYRGRPCLPEWDHILCWPLGAPGEVVAVPCPDYIYDFNHKGHAYRRCDRNGSWELVPGHNRTWANYSECVKFLTNETREREVFDRLGGGGSGGGGSGGGGSGGGGSFSGSEATAAILSRAPWSLQSVNPGLKTNSSKEPKFTKCRSPERETFSCHWTDEVHHGTKNLGPIQLFYTRRNTQEWTQEWKECPDYVSAGENSCYFNSSFTSIAIPYCIKLTSNGGTVDEKCFSVDEIVQPDPPIALNWTLLNVSLTGIHADIQVRWEAPRNADIQKGWMVLEYELQYKEVNETKWKMMDPILTTSVPVYSLKVDKEYEVRVRSKQRNSGNYGEFSEVLYVTLPQMSQ
modifications: Fusion proteins
Question: With B2 as the molecule, how does the “fold by which PTH is more potent than the fusion (EC50 ratio)” value (UMR-106 cells) read?
Answer: Its value is ~18 fold.

Question: What about the “cAMP levels (mean±SD)” value [1, 2] of the same molecule?
Answer: Its value is 264±12 pmol cAMP/ml.
